This series deals with T1, TOP3A WT (Homo sapiens, UniProt Q13472 16-934).
T1 sequence: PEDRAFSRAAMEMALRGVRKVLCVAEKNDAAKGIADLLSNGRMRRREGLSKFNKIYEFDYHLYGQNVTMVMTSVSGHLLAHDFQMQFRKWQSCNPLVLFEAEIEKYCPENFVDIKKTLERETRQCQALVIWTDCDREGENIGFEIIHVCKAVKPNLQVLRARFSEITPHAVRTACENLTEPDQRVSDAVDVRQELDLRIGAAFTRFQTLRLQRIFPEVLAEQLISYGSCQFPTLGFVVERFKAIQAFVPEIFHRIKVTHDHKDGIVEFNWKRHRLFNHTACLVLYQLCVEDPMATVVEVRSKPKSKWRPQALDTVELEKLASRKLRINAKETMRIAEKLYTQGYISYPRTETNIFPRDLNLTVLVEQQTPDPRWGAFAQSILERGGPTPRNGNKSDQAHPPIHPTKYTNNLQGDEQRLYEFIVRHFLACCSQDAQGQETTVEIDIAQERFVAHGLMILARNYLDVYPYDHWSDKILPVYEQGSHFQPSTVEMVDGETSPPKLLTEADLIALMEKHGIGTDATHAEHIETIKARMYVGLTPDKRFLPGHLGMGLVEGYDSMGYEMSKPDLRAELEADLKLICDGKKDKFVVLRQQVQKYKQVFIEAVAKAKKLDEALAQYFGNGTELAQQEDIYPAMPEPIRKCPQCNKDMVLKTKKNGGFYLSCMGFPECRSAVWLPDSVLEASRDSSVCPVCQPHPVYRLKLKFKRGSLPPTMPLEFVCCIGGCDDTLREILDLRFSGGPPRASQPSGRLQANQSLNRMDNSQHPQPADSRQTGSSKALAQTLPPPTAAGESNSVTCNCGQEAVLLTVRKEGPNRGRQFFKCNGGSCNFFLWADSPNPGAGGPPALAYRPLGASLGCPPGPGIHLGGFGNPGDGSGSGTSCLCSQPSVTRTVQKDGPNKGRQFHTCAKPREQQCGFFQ
The series can be described thus: EMSA; two shifted bands (two TOP3A molecules); 25 mM HEPES pH 7.5, 70 mM NaCl, 100 ug/ml BSA, 1 mM DTT, 10% glycerol; 10 fmol oligo, 0-250 fmol TOP3A in 20 ul; 37 C 15 min, then ice; 8% native PAGE in 0.5x TBE at 4 C. The conditions noted are these: protein: recombinant; tags: N-terminal TEV-cleavable 6xHis, cleaved; label: 5' 32P; single strand.

B1: EMSA substrate 80-mer (ssDNA)
DNA: ACCACATTAACAACATAAAACCCTCATTCACACGAGAAAACACCCTCATGTTCATACACCTATCCCCCATTCTCCTCCTA
Take B1: the binding result is on record as “binds”.

(Values after PMC10165364, “Pathological variants in TOP3A cause distinct disorders of mitochondrial and nuclear genome stability”.)
